What all share (assay): fluorescence anisotropy
Background: Polarisation of emitted light reports the rotation of a fluorescent probe.

The target in data set [1] is T1, ERα DBD-Ext (Homo sapiens, UniProt P03372).
The target of data set [2] is T1, ERα DBD-Ext. The source holds these as a separate data set.
Data set [3] has as its target T1, ERα DBD-Ext. The source holds these as a separate data set.
Data set [4] has as its target T1, ERα DBD-Ext. The source holds these as a separate data set.

Like-named read-outs stand apart in the source and are kept apart here.

For orientation: Kd means a measure of binding affinity in units of concentration. A higher Kd goes with lower affinity.

B1: rERE duplex (dsRNA)
RNA 1: CAGGUCAGAGUGACCUGAUU
RNA 2: AAUCAGGUCACUCUGACCUG
In the data set with ERα DBD-Ext [1], B1 showed a Kd of 1100 nM.

B2: GREB1 (structured_RNA)
RNA: GGGAUGCCGAAGAGUUGAUGUCAAUCUUUUUUUCCUAAGAAAAAAAGUCCGCGAGUAUUCC
For the molecule B2, the binding result in the data set with ERα DBD-Ext [2] is given as “binds”.

On to AUACAACAUACAACAUACAACAUACAACAUACAAC (ssRNA) [ssRNA (env8)], for which the Kd in the data set with ERα DBD-Ext [3] was approximately 1100 nM.

UCAGGUCACUCUGACCUGGCUUCAGGUCAGAGUGACCUGA (structured_RNA) [rERE loop rescue]: the binding result with ERα DBD-Ext [4] is “binds”.

As for GGGAUCUGCCUGCAUCCUGACGCGGUGCCGUCCC (structured_RNA) [TFF1], in the data set with ERα DBD-Ext [2], the binding result is reported as “binds”.

On to CAGGUCAGAGUGACCUGAUUCGUCAGGUCACUCUGACCUG (structured_RNA) [rERE], for which, in the data set with ERα DBD-Ext [1], the Kd was 130 ± 20 nM.

The record behind these values is article PMC9798703.
